The values below come from US20110294167.

The subject of data set [1] is T1, ORF904 primase (residues 1-370) (Sulfolobus islandicus).
T1 sequence: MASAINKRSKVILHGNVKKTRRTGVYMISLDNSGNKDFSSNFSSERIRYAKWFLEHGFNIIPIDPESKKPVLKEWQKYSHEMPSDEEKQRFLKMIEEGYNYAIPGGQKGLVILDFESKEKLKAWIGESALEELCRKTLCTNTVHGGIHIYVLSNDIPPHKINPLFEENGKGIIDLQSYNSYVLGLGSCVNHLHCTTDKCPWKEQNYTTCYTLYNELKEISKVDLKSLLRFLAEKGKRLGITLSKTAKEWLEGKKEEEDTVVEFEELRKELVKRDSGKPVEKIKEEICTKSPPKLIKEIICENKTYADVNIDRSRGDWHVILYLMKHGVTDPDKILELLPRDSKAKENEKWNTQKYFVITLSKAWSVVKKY
Particulars: primer synthesis inferred from primer-free amplification with Phi29, 1500 ng primase vs Phi29 only; 10 mM MgCl2, 1 mM ATP, 30 C.

For data set [2], the target named is T7 gp4 K318A primase (Bacteriophage T7) (UniProt P03692). The conditions noted are these: amplification with Phi29 and T7 DNA polymerase; 10 mM MgCl2, NTPs, 30 C.

For M13 ssDNA (M13mp18), the activity in data set [1] was found to be 13 fold; in data set [2] it was 4000 fold.
